A short description of this data set: soluble on expression in E. coli; label from the status in PepcDB or PDB records.
For the sequence “MADKRIRSDSSAAAVQAMKNAAVDTIDPPSHAGLEKKAEPFWHDNIRSKALDSWTPADLLAAVELANNQLYITVLRKDLRKEERIRGEERDEGLIKDLRKQIVELQRTILAQRRDLQIHSHATNGESRDQKKRNQNDRDARNTKNEHQDQDDNLIAFPKHG”, the “soluble on expression in E. coli” value is on record as “not soluble”.

Regarding “MADLEAVLADVSYLMAMEKSRSQPAARASKRIVLPDPSVRSIMQKFLEKSGDMKFDKIFNQKLGFLLLKDYAENVSESPCPQIKFYEAIKEYEKMETPDERLTKAREIYDHHIMVEMLAHAHNYSKESLQHVQYHLLKQNVPPDLFHRYVLEICDQLRGDIFQRFLESDKFTRFCQWKNLELNMQLTMNDFSVHRIIGRGGFGEVYGCRKADTGKMYAMKCLDKKRIKMKQGETLALNERIMLSLVSTGQDCPFIVCMTYAFQSPDKLCFILDLMNGGDLHYHLSQHGVFTEQEMIFYASEVILGLEHMHNRFVVYRDLKPANILLDENGHVRVSDLGLACDYSKKKPHASVGTHGYMAPEVLAKGVAYDSSADWFSLGCMLYKLLKGHSPFRQHKSKDKNEIDKMTLTQDIELPNEGLSKDCRDLLEGLLKRDVPDRLGCRGKGPTEVKEHPFFKDVDWQTVYLRRMTPPLIPPRGEVNAADAFDIGNFDDDEVKGVKLQDGDSDLYKNFNIVISERWQNEIAETIFEVVNQDADKAESKKRSKQKIKVAVEEKDSDVIVHGYIKKLGGPFTSAWQTKYGKLYPSRLELYPESLTAKPELVFMDQIEDVCAEMQTIKGETAIIVKLRDGFKEPKICLTNSDEISLKEWHTSLRTAHKVSQELLQRMGRKAIKIYGVNHDPMLSESERPGSVTRAFLNRASSVDSGV”, the “soluble on expression in E. coli” value was “not soluble”.

Regarding “MADLFPADFEPVFINIGDLELYNQDLDDEGTPTEAWTTFREEVKQVDGVMFVTPEYNRSVPAVLKNALDVGSRPYGESVWDKKPGLVVSVSPGAISGFGANHHLRQSLVFLNVPTLQQPEAYIGGITNLIGEDGKIIDGTVGFLQSIVDAYVDFFNRLTA”, the “soluble on expression in E. coli” value was “not soluble”.

“MADPDSYRSSITSRPAFNRTVTSSTQNYGTPASGNRVLKIVTETHTSSVASGLSPYGQGAASTIRDDREREKKEITELNDRLASYIGKVRFLAAQNRKLEADLNVLQSRFGKSTGSVKIMYEMEITTATNVVKETGKDHEEAEKEIGKIKDQLDELRKKFEEAQKGRAEDRLKIDELLVTLSNLEAEINLLKRRIALLEEEVARLKKENFRLTSELQRVRSELDQETLLRIDNQNKVTTILEEIDFMKRGFETELKDLQAQAARDTTSENREYFKNELMNSIRDIRAEYDRFMAGNRNDLESWSQIRVQEINTQTNRQNAEINHKRDEVKRLHSQVSELKSKHAELAARNGLLEKQLEDLNYQLEDDQRSYEAALNDKDAQVRKLREECQALLVELQMLLDTKQTLDGELKVYRRMLEGNSEENGLRQLVEKVVRTSAINEEVDTETMRVVKGEHSSRTSYQRSAKGNVSIKEVSPEGKFVILENTHRDKEEPLGDWKLKRKIDGKREIVFTFPSDYILHPVQTVKIFARGNGVANPPEVLVFEGDDTFGAGANVQTILYNNSGEERATHMQRQSQQTTTS”: the “soluble on expression in E. coli” value was “not soluble”.

In the case of “MADSDLPTKGRQRGVRAVELNVAARLENLALLRTLVGAIGTFEDLDFDAVADLRLAVDEVCTRLIRSALPDATLRLVVDPRKDEVVVEASAACDTHDVVAPGSFSWHVLTALADDVQTFHDGRQPDVAGSVFGITLTARRAASSR”, the “soluble on expression in E. coli” value is “not soluble”.

“MADSPNRLNRAKIDSTTMKDPRVLNNLKLRELLLPKFTSLWEIQTEVTVDNRTILLTWMHLLCESFELDKSVFPLSVSILDRYLCKKQGTKKTLQKIGAACVLIGSKIRTVKPMTVSKLTYLSCDCFTNLELINQEKDILEALKWDTEAVLATDFLIPLCNALKIPEDLWPQLYEAASTTICKALIQPNIALLSPGLICAGGLLTTIETDNTNCRPWTCYLEDLSSILNFSTNTVRTVKDQVSEAFSLYDLEIL”: the “soluble on expression in E. coli” value is reported as “soluble”.

As for “MAEAVITLTEAAAFQIKDMMKEQEEEGAYLRVGVHGGGCSGLSYGMGFDHERRDDDIEFEQHGIKILVDRDSAPILRGTVIDYKQSLLGGGFTINNPNAIATCGCGSSFRTATNAGTPEQC”, the “soluble on expression in E. coli” value was “soluble”.

Take “MAEDKTKPSELDQGKYDADDNVKIICLGDSAVGKSKLMERFLMDGFQPQQLSTYALTLYKHTATVDGRTILVDFWDTAGQERFQSMHASYYHKAHACIMVFDVQRKVTYRNLSTWYTELREFRPEIPCIVVANKIDADINVTQKSFNFAKKFSLPLYFVSAADGTNVVKLFNDAIRLAVSYKQNSQDFMDEIFQELENFSLEQEEEDVPDQEQSSSIETPSEEAASPHS”: the “soluble on expression in E. coli” value is given as “soluble”.

In the case of “MAEETIFSKIIRREIPSDIVYQDDLVTAFRDISPQAPTHILIIPNILIPTVNDVSAEHEQALGRMITVAAKIAEQEGIAEDGYRLIMNTNRHGGQEVYHIHMHLLGGRPLGPMLAHKGL”, the “soluble on expression in E. coli” value is “soluble”.

“MAEIGIFVGTMYGNSLLVAEEAEAILTAQGHKATVFEDPELSDWLPYQDKYVLVVTSTTGQGDLPDSIVPLFQGIKDSLGFQPNLRYGVIALGDSSYVNFCNGGKQFDALLQEQSAQRVGEMLLIDASENPEPETESNPWVEQWGTLLS”: the “soluble on expression in E. coli” value is reported as “soluble”.

As to “MAEKTVYRVDGLSCTNCAAKFERNVKEIEGVTEAIVNFGASKITVTGEASIQQVEQAGAFEHLKIIPEKEA”, the “soluble on expression in E. coli” value was “soluble”.

In the case of “MAELKALQNGSDIRGIALDTEEQTATLTATAVAEIAVGVVRWLQDKKQLPRKAQQRLTIAIGHDSRLTAEPIKQALVDTFLSLGIQVIDVGLATTPAMFMATQFPTLQCDAAIMITASHLPYYFNGLKFFTAEGGAEKEDIRYILSHTDPLTANENGTLMKQELLPIYAEHLVEKIRQGIHSPEEKPLQGFRIIVDAGNGAGGFFAEQVLQVLGADTTGSQFLEPDGHFPNHVPNPDNSEAMKSIQTAVLANQADLGIIFDTDVDRSAVVDQSGEVLNRNNLIAVLAAIVLKEAPGSYIVTNSPTSSHLKTFIEEKGGQQIRYISGYRNVINKMIELNHGGFQTPLAIETSGHAAFQENYNLDDGAYVVAKILMLLPELKQNNQTLGDLIATLKQPAETNEFRFKITAEDVTCYGQQVLRDFELFVENQADFAVDRENQEGVRGNVSGQYGSGWFLLRLSLHEPLLVLQVENDQSDKNACVIEKIATFLQKYEEIDSQQIEK”, the “soluble on expression in E. coli” value is listed as “not soluble”.

As for “MAENRYELNKNLAQMLKGGVIMDVQNPEQARIAEAAGAAAVMALERIPADIRAVGGVSRMSDPKMIKEIQGAVSIPVMAKVRIGHFVEAQILEAIEIDYIDESEVLSPADNRFHVDKKEFQVPFVCGAKDLGEALRRIAEGASMIRTKGEPGTGDIVQAVRHMRMMSQEIRRIQNLREDELYVAAKDLQVPVELVQYVHKHGKLPVVNFAAGGIATPADAALMMQLGAEGVFVGSGIFKSGDPIKRASAIVKAVTNYRNPQILAQISEDLGEAMVGINENEIQILMAERGKLEHHHHHH”, the “soluble on expression in E. coli” value is on record as “not soluble”.

With “MAESRSPDRGAKEDKPRPRNISREESLQLEGYKHACHALLHAPSQAKLFDRVPIRRVLLMMMRFDGRLGFPGGFVDTRDISLEEGLKRELEEELGPALATVEVTEDDYRSSQVREHPQKCVTHFYIKELKLEEIERIEAEAVNAKDHGLEVMGLIRVPLYTLRDRVGGLPAFLCNNFIGNSKSQLLYALRSLKLLREDQIQEVLKASHRLQY”, the “soluble on expression in E. coli” value is given as “soluble”.

Regarding “MAFDGCCPDCKLPGDDCPLIWGACNHAFHLHCILKWVNSQTSQAHCPMCRREWQFKE”, the “soluble on expression in E. coli” value is “soluble”.

With “MAFERQGKIEKKISYSLFLNGPNVHFGSILFGAVDKSKYAEELCTHPMRQAYNTLDSNSRIIITVQSVAILDGKLVW”, the “soluble on expression in E. coli” value is listed as “not soluble”.

Regarding “MAGDPMETLLIQQTEKSNKFWKIVVKEKDYVVFYGKIGTAGSVKAKEFETEEECMNEANKLVASKRKKGYIDPLPGEDYIKEKTITEEEFWELLHRAKTKGEDQEEQIEWLTSHLAKRTVHEIVAFDTHMHSLLKDSYTSRLWAAAYIIMGGCSDDTFDYFRGWLLYQGKETYEACIEDPERLIPVLENLSEYDVPEIEELSLYFGFTVYAEKTGDEDDTYFTLYHVLSNEEFDDVDFEFDWNEDDEEGLKKVFPRLWEMYGEEPIEWLEHHHHHH”, the “soluble on expression in E. coli” value is recorded as “soluble”.

The values are drawn from the DeepSol protein solubility set.
